In IntAct's records for PubMed 15555586:

B1: Suppressor of kinetochore protein 1 (Schizosaccharomyces pombe (strain ATCC 38366 / 972)), Q9Y709 (parent)
chain: MSKIKLISSDNEEFVVDQLIAERSMLIKNMLEDVGEINVPIPLPNVSSNVLRKVLEWCEHHKNDLYSGTEEESDIRLKKSTDIDEWDRKFMAVDQEMLFEIVLASNYLDIKPLLDTGCKTVANMIRGKSPEDIRKTFNIPNDFTPEEEEQIRKENEWAEDR
partner: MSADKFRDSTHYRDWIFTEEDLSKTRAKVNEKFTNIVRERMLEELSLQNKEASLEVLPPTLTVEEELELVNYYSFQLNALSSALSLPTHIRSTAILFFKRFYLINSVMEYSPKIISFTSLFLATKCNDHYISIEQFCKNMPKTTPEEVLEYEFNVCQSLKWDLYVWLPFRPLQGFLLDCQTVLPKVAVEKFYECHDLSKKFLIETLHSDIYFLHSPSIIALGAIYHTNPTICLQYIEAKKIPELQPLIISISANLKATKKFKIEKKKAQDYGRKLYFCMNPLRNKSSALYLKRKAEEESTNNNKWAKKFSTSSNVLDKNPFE

Variants of: B1
Details: with cgm2_schpo mcs2, P36613

Variant | effect of a mutation on the interaction
I139N | decreasing interaction
